Test results reported in patent US20250332254A1, “METHODS FOR TREATING PATIENTS WITH FAMILIAL HYPERCHOLESTEROLEMIA” (REGENERON PHARMACEUTICALS, INC., priority 2016, published 2025).

Key:
ANGPTL3 [1] = molecular target: T1, ANGPTL3 (Homo sapiens, UniProt Q9Y5C1); conditions: Dewey, et al. 2017; cited from earlier work
T1 construct: Angiopoietin-like protein 3 (ANGPTL3) is a secreted protein expressed in the liver; from tissue; host or cells: in vivo, human subjects; circulating protein secreted by the liver
T1 sequence (Q9Y5C1 17-460): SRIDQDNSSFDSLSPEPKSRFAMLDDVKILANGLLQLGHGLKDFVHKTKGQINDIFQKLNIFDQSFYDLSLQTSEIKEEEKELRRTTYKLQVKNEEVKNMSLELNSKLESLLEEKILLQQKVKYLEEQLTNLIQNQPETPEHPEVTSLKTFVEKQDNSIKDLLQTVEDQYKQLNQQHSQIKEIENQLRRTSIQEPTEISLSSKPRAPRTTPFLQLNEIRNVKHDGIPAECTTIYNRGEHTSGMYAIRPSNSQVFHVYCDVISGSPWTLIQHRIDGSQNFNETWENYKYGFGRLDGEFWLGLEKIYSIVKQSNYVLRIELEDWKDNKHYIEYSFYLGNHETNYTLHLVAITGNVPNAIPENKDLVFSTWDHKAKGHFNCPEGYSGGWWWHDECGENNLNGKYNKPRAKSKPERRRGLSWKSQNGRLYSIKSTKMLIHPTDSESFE

ANGPTL3 [2] = molecular target: T1, ANGPTL3; assay: Phase 1 first-in-human ascending single-dose placebo-controlled study of evinacumab SC or IV in subjects with elevated TGs and/or LDL-C; assay type: in vivo
Protocol: Methods: The instant study constituted a phase 1, first-in-human, ascending single-dose, placebo (PBO)-controlled, double-blind study of evinacumab administered subcutaneously (SC) or intravenously (IV) in subjects with elevations of TGs (150≤TG≤450 mg/dL) and/or LDL C (≥100 mg/dL). Eighty-three subjects were randomized into the study (9 in PBO SC; 12 in PBO IV; 11 in 75 mg SC: 12 in 150 mg SC, 9 in 250 mg SC, 10 in 5 mg/kg IV, 9 in 10 mg/kg IV, and 11 in 20 mg/kg IV).

ANGPTL3 [3] = molecular target: T2, ANGPTL3 (Mus musculus, UniProt Q9R182); conditions: mouse model; Wang, et al. 2015; cited from earlier work
T2 construct: host or cells: mouse, in vivo
T2 sequence (Q9R182 17-455): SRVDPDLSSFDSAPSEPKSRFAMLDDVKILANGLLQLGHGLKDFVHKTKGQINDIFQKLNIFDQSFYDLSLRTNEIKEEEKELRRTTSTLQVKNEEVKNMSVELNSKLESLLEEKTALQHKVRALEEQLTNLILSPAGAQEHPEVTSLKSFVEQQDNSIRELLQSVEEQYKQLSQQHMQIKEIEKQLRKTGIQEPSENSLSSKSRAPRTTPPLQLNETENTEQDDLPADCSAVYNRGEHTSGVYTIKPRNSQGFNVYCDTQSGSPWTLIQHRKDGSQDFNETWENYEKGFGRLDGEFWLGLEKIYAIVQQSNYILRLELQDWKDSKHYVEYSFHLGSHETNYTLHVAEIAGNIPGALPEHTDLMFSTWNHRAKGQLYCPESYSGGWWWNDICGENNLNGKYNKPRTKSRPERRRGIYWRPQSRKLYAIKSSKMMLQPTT

ANGPTL3 [4] = molecular target: T1, ANGPTL3; assay: Phase 2 open-label study of evinacumab in patients with homozygous familial hypercholesterolemia on concomitant lipid-lowering therapies; assay type: in vivo; conditions: for LDL-C, Mean of Percent Change from Baseline ± SE (%) / Non-HDL-C, Mean of Percent Change from Baseline ± SE (%) / Apolipoprotein B, Mean of Percent Change from Baseline ± SE (%): 250 mg SC wk 0 + 15 mg/kg IV wk 2
Protocol: Patients: The nine patients (5 men, 4 women) were selected based on their genotypes and phenotypes. All presented a history of LDL-C >500 mg per deciliter or >400 mg per deciliter after portacaval shunt, premature atherosclerosis (8 of 9 with prior history of cardiovascular events) and severe xanthomatosis, and were homozygotes or compound heterozygotes for known FH-causing LDLR mutations (Hobbs, et al. 1992 Hum Mutat 1:445-66). Three patients were null homozygotes. All patients were on maximally tolerated lipid-lowering therapy.
Study Treatment: The patients were required to maintain their usual background lipid-lowering therapy and diet and exercise regimens throughout the study. All patients received a single open-label dose of evinacumab 250 mg subcutaneously in the abdominal area during the baseline visit and a single 15 mg per kilogram intravenous dose of evinacumab 2 weeks later. The sterile, lyophilized evinacumab drug product was supplied in a 5-ml single-use glass vial for reconstitution to a concentration of 100 mg per milliliter for subcutaneous doses and 50 mg per milliliter for intravenous doses. Patients were followed for a period of up to 24 weeks after the intravenous dose to allow for washout of evinacumab, and were offered enrollment in an extension study.
Pharmacodynamic Assessment: Fasting blood samples were collected before administration of study drug, at baseline and at regular intervals during the open-label treatment period and safety follow-up period, for measurement of LDL-C, non-HDL-C, total cholesterol, HDL-C, apolipoprotein B, lipoprotein (a), triglycerides, apolipoprotein A-1, and other parameters. The primary endpoint was the mean ±standard deviation (SD) percent change in LDL-C from baseline to week 4.

[5] = 3 homozygous null patients, through week 12

TG, median % change from baseline (maximum TG reductions) (ANGPTL3 [2]; Day 4, across the evinacumab doses (75-250 mg SC, 5-20 mg/kg IV)): −1.0% to −75.0%
LDL-C, mean % changes from baseline (ANGPTL3 [2]; Day 11, across the evinacumab doses (75-250 mg SC, 5-20 mg/kg IV)): −3.4% to −25.5%
duration of LDL reduction (ANGPTL3 [2]; after 20 mg/kg IV): 43 days
duration of TG reduction (ANGPTL3 [2]; after 20 mg/kg IV): 64 days
effect on HDL-C, VLDL-C, total cholesterol, non-HDL-C, ApoA1, and ApoB (ANGPTL3 [2]; human, in vivo): Dose-dependent reductions
effect on Lp(a) (ANGPTL3 [2]; human, in vivo): no apparent effects
effect on major lipid fractions (ANGPTL3 [2]; normal healthy volunteers): reduced the three major lipid fractions
mean±SD peak reduction in LDL-C (ANGPTL3 [4]; [5]): −48±13%
range of peak reduction in LDL-C (ANGPTL3 [4]; [5]): −60% to −33%
absolute reductions in LDL-C achieved (ANGPTL3 [4]; HoFH patients): 150 to 200 mg/dL
LDL-C, Mean of Percent Change from Baseline ± SE (%) (ANGPTL3 [4]; HoFH patients, Day 4): −12.8 ± 3.7%
Non-HDL-C, Mean of Percent Change from Baseline ± SE (%) (ANGPTL3 [4]; HoFH patients, Day 4): −13.6 ± 3.6%
LDL-C, Mean of Percent Change from Baseline ± SE (%) (ANGPTL3 [4]; HoFH patients, Week 1): −24 ± 7.0%
Non-HDL-C, Mean of Percent Change from Baseline ± SE (%) (ANGPTL3 [4]; HoFH patients, Week 1): −24.1 ± 6.7%
Apolipoprotein B, Mean of Percent Change from Baseline ± SE (%) (ANGPTL3 [4]; HoFH patients, Week 2): −24.2 ± 7%
LDL-C, Mean of Percent Change from Baseline ± SE (%) (ANGPTL3 [4]; HoFH patients, Week 2): −30.2 ± 8.1%
Non-HDL-C, Mean of Percent Change from Baseline ± SE (%) (ANGPTL3 [4]; HoFH patients, Week 2): −29.6 ± 7.8%
Apolipoprotein B, Mean of Percent Change from Baseline ± SE (%) (ANGPTL3 [4]; HoFH patients, Week 3): −38.6 ± 7.3%
LDL-C, Mean of Percent Change from Baseline ± SE (%) (ANGPTL3 [4]; HoFH patients, Week 3): −41.4 ± 8.3%
Non-HDL-C, Mean of Percent Change from Baseline ± SE (%) (ANGPTL3 [4]; HoFH patients, Week 3): −41.6 ± 8%
Apolipoprotein B, Mean of Percent Change from Baseline ± SE (%) (ANGPTL3 [4]; HoFH patients, Week 4): −45.9 ± 6.1%
LDL-C, Mean of Percent Change from Baseline ± SE (%) (ANGPTL3 [4]; HoFH patients, Week 4): −49.2 ± 7.7%
Non-HDL-C, Mean of Percent Change from Baseline ± SE (%) (ANGPTL3 [4]; HoFH patients, Week 4): −48.9 ± 7.4%
Apolipoprotein B, Mean of Percent Change from Baseline ± SE (%) (ANGPTL3 [4]; HoFH patients, Week 5): −42.3 ± 4.7%
Substance: evinacumab: human anti-ANGPTL3 monoclonal antibody; HCVR SEQ ID NO:1, LCVR SEQ ID NO:5
tolerability and LDL-C effect in first-in-human study of healthy human volunteers (ANGPTL3 [1]): shown to reduce LDL-C and was also well tolerated
headache (TEAE), number of subjects (ANGPTL3 [2]; evinacumab group): 7
headache (TEAE), percent of subjects (ANGPTL3 [2]; evinacumab group): 11.3%
subjects reporting at least one treatment emergent adverse event (TEAE), number (ANGPTL3 [2]; evinacumab group): 32 subjects
subjects reporting at least one treatment emergent adverse event (TEAE), percent (ANGPTL3 [2]; evinacumab group): 51.6%
increases in ALT/AST [>2X ULN], number of subjects (ANGPTL3 [2]; evinacumab-treated): 5 treated subjects
effect on TGs, LDL-C and HDL-C (ANGPTL3 [2]; healthy subjects with moderately elevated TGs and/or LDL-C): rapid and substantial reductions in TGs, as well as reductions in LDL-C and HDL-C
discontinuation due to a TEAE (ANGPTL3 [2]; human, in vivo): no subject discontinued due to a TEAE
dose-related safety trend (ANGPTL3 [2]; human, in vivo): no dose-related safety trend
serious TEAEs (ANGPTL3 [2]; human, in vivo): None were serious
tolerability (ANGPTL3 [2]; single SC or IV dose, subjects with moderately elevated TGs and/or LDL-C): generally well-tolerated
number of VLDLs secreted by the liver and character of VLDL particles (ANGPTL3 [3]): did not affect the number of VLDLs secreted by the liver, but qualitatively altered the VLDL particles that were made
tolerability (ANGPTL3 [4]; 250-mg subcutaneous injection at baseline and 15 mg per kilogram intravenous infusion at week 2): well tolerated
